Experiment [1] addresses T1, AtNF-YC4-cYFP (Arabidopsis thaliana, UniProt Q9FMV5 1-250).
T1 construct: BiFC construct expressed in tobacco leaves; AtNF-YC4 is fused in-frame to the N-terminus of cYFP; not shown: cYFP (C-terminal end of yellow fluorescent protein)
T1 sequence (looked up): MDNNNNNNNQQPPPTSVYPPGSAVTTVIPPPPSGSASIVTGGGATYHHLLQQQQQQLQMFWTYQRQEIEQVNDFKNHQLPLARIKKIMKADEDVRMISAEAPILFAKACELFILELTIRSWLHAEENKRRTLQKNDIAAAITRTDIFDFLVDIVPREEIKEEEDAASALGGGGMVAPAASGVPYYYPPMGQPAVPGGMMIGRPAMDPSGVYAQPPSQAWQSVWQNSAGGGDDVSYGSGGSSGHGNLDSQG
Kind of experiment: in vivo co-expression in tobacco leaf. On the procedure: QQS and AtNF-YC4 were fused in-frame to the N-terminus of nYFP (N-terminal end of yellow fluorescent protein (YFP)) and cYFP (C-terminal end of YFP), respectively. Agrobacterium strain GV3101 transformed with QQS-nYFP and AtNF-YC4-cYFP constructs were co-infiltrated into Nicotiana tabacum. The reconstituted YFP signal was observed 48 h after infiltration under a Zeiss Axioplan II fluorescence microscope.

Experiment [2] has as its target T2, Arabidopsis Nuclear Factor YB7 (AtNF-YB7), recombinant, tagged, for pull-down (Arabidopsis, UniProt Q9SIT9 1-215).
T2 construct: Contains a histone-fold-like domain; also called AtNF-YB7-GST fusion protein
T2 sequence (looked up): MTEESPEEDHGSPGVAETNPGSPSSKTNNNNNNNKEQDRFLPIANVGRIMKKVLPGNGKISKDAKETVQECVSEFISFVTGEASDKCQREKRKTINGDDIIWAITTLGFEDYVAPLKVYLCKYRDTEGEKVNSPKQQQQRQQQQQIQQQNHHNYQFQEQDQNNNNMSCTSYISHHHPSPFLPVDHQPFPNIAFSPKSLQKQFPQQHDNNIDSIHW
Kind of experiment: GST pull-down.

No end group written: not given here. nYFP = N-terminal end of yellow fluorescent protein

B1: QQS-nYFP (other)
chain: MKTNREQEIYVERSFKPNNSTIQNLMDIERFILPHTSTSGVARLKMRVISWVGLQFYNY-nYFP
modifications: also: nYFP limits and sequence not given here
notes: BiFC construct expressed in tobacco leaves; QQS is fused in-frame to the N-terminus of nYFP; not shown: nYFP (N-terminal end of yellow fluorescent protein)
For the molecule B1, the binding result in experiment [1] was “binds”.

B2: GST-QQS fusion protein (other)
chain: MKTNREQEIYVERSFKPNNSTIQNLMDIERFILPHTSTSGVARLKMRVISWVGLQFYNY
modifications: also: fused to GST tag, position and linker not given here
notes: also called GST-tagged QQS; not shown: glutathione-S-transferase (GST) tag
For the molecule B2, the binding result in experiment [2] is reported as “no binding”.

Source of the values: US20260139263A1 (IOWA STATE UNIVERSITY RESEARCH FOUNDATION, published 2026).
